Test results as given in PMC8387365.

Assays:
[1] = target: microtubules polymerised from tubulin; assay: TIRF microscopy, GFP intensity on immobilised microtubules
PRC1(1-486) = PRC1(1-486) (UniProt O43663); assay: BLI
[2] = target: full-length PRC1 (Protein Regulator of Cytokinesis-1) (UniProt O43663); assay: BLI
Sequence of full-length PRC1 (Protein Regulator of Cytokinesis-1) (O43663 whole entry): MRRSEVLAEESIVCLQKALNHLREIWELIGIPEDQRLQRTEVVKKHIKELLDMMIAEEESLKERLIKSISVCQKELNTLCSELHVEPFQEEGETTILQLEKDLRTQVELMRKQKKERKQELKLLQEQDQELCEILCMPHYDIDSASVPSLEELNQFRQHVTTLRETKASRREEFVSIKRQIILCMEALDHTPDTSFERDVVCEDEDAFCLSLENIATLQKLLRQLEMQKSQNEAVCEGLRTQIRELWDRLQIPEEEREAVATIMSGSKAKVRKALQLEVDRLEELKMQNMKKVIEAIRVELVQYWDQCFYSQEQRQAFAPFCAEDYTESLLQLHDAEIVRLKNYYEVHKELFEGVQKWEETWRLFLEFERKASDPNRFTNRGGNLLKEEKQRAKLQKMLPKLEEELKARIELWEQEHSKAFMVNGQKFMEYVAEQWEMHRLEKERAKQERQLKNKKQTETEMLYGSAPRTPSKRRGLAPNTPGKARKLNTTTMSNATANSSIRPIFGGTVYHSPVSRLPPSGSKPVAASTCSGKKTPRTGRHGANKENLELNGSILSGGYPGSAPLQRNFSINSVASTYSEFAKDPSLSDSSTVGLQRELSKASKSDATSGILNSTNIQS

Sequence of microtubules polymerised from tubulin (P68363 whole entry, chain 1 of 2): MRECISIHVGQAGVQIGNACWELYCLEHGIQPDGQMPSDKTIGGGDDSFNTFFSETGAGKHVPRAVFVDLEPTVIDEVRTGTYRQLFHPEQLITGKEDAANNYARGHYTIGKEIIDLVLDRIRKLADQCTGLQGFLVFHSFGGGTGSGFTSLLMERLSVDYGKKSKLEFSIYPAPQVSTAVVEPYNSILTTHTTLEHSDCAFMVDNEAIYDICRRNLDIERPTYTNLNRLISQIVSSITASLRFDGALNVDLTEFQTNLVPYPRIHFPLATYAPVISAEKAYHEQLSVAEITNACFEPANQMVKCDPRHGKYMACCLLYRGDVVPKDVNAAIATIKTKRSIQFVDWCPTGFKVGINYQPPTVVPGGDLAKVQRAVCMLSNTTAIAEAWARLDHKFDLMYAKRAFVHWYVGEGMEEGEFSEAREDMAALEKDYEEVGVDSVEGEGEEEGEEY
Sequence of microtubules polymerised from tubulin (A8K068 whole entry, chain 2 of 2, further chain): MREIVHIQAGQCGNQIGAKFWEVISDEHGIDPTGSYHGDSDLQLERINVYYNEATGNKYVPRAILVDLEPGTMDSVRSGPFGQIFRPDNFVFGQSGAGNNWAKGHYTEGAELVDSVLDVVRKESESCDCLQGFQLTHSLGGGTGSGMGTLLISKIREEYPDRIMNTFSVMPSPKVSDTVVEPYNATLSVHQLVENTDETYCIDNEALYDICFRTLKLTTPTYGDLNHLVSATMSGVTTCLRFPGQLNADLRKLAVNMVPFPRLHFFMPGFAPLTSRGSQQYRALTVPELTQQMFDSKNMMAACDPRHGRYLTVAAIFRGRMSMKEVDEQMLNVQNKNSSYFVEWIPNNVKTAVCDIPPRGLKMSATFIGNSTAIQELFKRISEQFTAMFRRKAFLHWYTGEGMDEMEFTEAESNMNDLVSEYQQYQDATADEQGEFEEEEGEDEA
Sequence of PRC1(1-486) (O43663 1-486): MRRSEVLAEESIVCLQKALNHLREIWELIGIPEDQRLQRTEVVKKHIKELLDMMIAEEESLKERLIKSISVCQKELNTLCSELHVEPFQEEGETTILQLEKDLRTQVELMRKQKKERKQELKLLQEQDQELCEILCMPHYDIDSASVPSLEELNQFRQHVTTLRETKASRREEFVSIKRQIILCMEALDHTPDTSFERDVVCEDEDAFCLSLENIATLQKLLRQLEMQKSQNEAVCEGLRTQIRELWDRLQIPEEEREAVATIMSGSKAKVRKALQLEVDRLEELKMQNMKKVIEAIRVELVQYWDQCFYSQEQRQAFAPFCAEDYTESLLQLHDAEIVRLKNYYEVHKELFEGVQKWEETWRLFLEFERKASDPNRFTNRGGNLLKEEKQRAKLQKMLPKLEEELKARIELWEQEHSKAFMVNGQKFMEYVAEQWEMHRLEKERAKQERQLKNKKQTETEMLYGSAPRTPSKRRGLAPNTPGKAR

| Substance | GFP intensity per pixel at 8 nM [1] | GFP intensity per pixel at 40 nM [1] | GFP intensity per pixel at 60 nM [1] | GFP intensity per pixel at 80 nM [1] | GFP intensity per pixel at 160 nM [1] | GFP intensity per pixel at 400 nM [1] | GFP intensity per pixel at 800 nM [1] | Kd (PRC1(1-486)) [nM] | Kd [2] [nM] |
| --- | --- | --- | --- | --- | --- | --- | --- | --- | --- |
| full-length CLASP1-GFP (natural protein) | 26.9 | 95.3 | 109 | 400 | 398 | 754 | 854 | – | – |
| CLASP1(654-1471)-GFP (domain or fragment) | – | – | – | – | – | – | – | 1040 | 1190 |
